Results as given in the supplement of paper PMC10126150.
± gives the standard deviation of the averaged measurements.

System: ATP
Experiment: switch fluorescence ratio, 500 uM ATP over buffer (Cy3 cluster intensity, sum of 5 cycles each) (fold (ratio)); higher = stronger signal-on switching upon ATP binding; sequences stand for … in TCGTCGGCAGCGTCAGATGTGTATAAGAGACAGTTTTTTTTTTTTTTTTTTTTTTTTT…TC
Settings: aptamer strand: ATP DNA aptamer (quencher-CACCTGGGGGAGTATTGCGGAGGAAGG + anchor), 100 nM annealed; ATP concentration: 500 uM
Method in brief: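 The quencher-labelled ATP aptamer, at 100 nM, was annealed to Cy3-labelled switching-strand clusters on a modified Illumina MiSeq flow-cell. The clusters were imaged in selection buffer, then after 15 min with 500 uM ATP at 22 °C, and this buffer/ATP cycle ran five times with NaOH stripping and re-annealing between runs. Per-cluster fluorescence ratios, summed target-cycle over summed buffer-cycle Cy3 intensity, were averaged per switch-domain sequence. Clusters outside 100-1000 RFU were excluded.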
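Note: ATP exposure 15 min at 22 °C before imaging.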

GCAGCCGAAT
switch fluorescence ratio: 1.04 ± 0.0093

GCAGCTGGTG
switch fluorescence ratio: 1.098 ± 0.00094

GCAGCTGTTT
switch fluorescence ratio: 1.02 ± 0.044

GCAGGAAGTC
switch fluorescence ratio: 0.994 ± 0.0039

GCAGGAATGG
switch fluorescence ratio: 1.113 ± 0.0098

GCAGGAGTGG
switch fluorescence ratio: 0.9929 ± 0.0088

GCAGGCCTGA
switch fluorescence ratio: 1.01 ± 0.029

GCAGGCTACA
switch fluorescence ratio: 1.02 ± 0.019

GCAGGGAAGG
switch fluorescence ratio: 1.03 ± 0.035

GCAGGGAATT
switch fluorescence ratio: 1 ± 0.045

GCAGGGATTG
switch fluorescence ratio: 0.9734 ± 0.0058

GCAGGGCGCC
switch fluorescence ratio: 1.01 ± 0.026

GCAGGGGGAA
switch fluorescence ratio: 1.08 ± 0.053

GCAGGGGGCA
switch fluorescence ratio: 1.024 ± 0.01

GCAGGGGGGG
switch fluorescence ratio: 1.05 ± 0.054

GCAGGGGGTT
switch fluorescence ratio: 1 ± 0.028

GCAGGTGGTG
switch fluorescence ratio: 1.08 ± 0.062

GCAGTAAAAC
switch fluorescence ratio: 1.694 ± 0.013

GCAGTATACC
switch fluorescence ratio: 1.15 ± 0.019

GCAGTCACAG
switch fluorescence ratio: 1.03 ± 0.029

GCAGTGAGGG
switch fluorescence ratio: 0.991 ± 0.028

GCAGTGGGGA
switch fluorescence ratio: 1 ± 0.031

GCAGTGTACG
switch fluorescence ratio: 0.997 ± 0.0087

GCAGTTAGCC
switch fluorescence ratio: 1.01 ± 0.034

GCAGTTGGGA
switch fluorescence ratio: 1.02 ± 0.011

GCAGTTTTAG
switch fluorescence ratio: 0.999 ± 0.027

GCATAATGAT
switch fluorescence ratio: 1 ± 0.022

GCATAATGGG
switch fluorescence ratio: 1.008 ± 0.0057

GCATAGGGAA
switch fluorescence ratio: 1 ± 0.015

GCATAGGGAT
switch fluorescence ratio: 0.988 ± 0.022

GCATATTGGG
switch fluorescence ratio: 0.9866 ± 0.0042

GCATCAAGTG
switch fluorescence ratio: 0.988 ± 0.034

GCATCACGAG
switch fluorescence ratio: 1.08 ± 0.03

GCATCAGGGA
switch fluorescence ratio: 1.02 ± 0.035

GCATGAAGCA
switch fluorescence ratio: 1 ± 0.017

GCATGAATCT
switch fluorescence ratio: 1.014 ± 0.0084

GCATGACTTT
switch fluorescence ratio: 1.06 ± 0.028

GCATGAGGTG
switch fluorescence ratio: 1.08 ± 0.021

GCATGCAGGG
switch fluorescence ratio: 1.01 ± 0.045

GCATGCGCTC
switch fluorescence ratio: 1.05 ± 0.052

GCATGGGGCC
switch fluorescence ratio: 1 ± 0.011

GCATGGGTGG
switch fluorescence ratio: 1 ± 0.023

GCATGTACTC
switch fluorescence ratio: 3.36 ± 0.63

GCATTAAAGG
switch fluorescence ratio: 0.981 ± 0.04

GCATTATCCA
switch fluorescence ratio: 1.01 ± 0.031

GCATTGGGGT
switch fluorescence ratio: 0.994 ± 0.012

GCATTGGTCA
switch fluorescence ratio: 1.027 ± 0.0076

GCATTGTCAA
switch fluorescence ratio: 0.992 ± 0.07

GCATTGTGTT
switch fluorescence ratio: 0.991 ± 0.052

GCATTTGGGA
switch fluorescence ratio: 0.99 ± 0.012

GCATTTGGTT
switch fluorescence ratio: 1.01 ± 0.012

GCATTTTACA
switch fluorescence ratio: 1 ± 0.013

GCATTTTATA
switch fluorescence ratio: 1.02 ± 0.012

GCATTTTTTT
switch fluorescence ratio: 0.996 ± 0.032

GCCAAAGACA
switch fluorescence ratio: 0.9573 ± 0.0053

GCCAAAGATT
switch fluorescence ratio: 1 ± 0.029

GCCAATGGGC
switch fluorescence ratio: 1 ± 0.051

GCCAATTGCA
switch fluorescence ratio: 0.97965 ± 0.00047

GCCACACAAT
switch fluorescence ratio: 1.022 ± 0.0014

GCCACAGCTG
switch fluorescence ratio: 1 ± 0.013

GCCACGTCAA
switch fluorescence ratio: 1.06 ± 0.067

GCCAGAGATA
switch fluorescence ratio: 1.0422 ± 0.00051

GCCAGAGTG
switch fluorescence ratio: 2 ± 0.44

GCCAGCCGAC
switch fluorescence ratio: 1.2 ± 0.032

GCCAGGAAAA
switch fluorescence ratio: 0.957 ± 0.053

GCCAGGCCGA
switch fluorescence ratio: 0.979 ± 0.034

GCCAGGGCGC
switch fluorescence ratio: 1.02 ± 0.018

GCCAGGGGGG
switch fluorescence ratio: 1.01 ± 0.029

GCCAGTTTGT
switch fluorescence ratio: 0.9807 ± 0.0052

GCCATAGCCT
switch fluorescence ratio: 0.9953 ± 0.0084

GCCATAGGTC
switch fluorescence ratio: 1.012 ± 0.0043

GCCATCAATA
switch fluorescence ratio: 1.03 ± 0.023

GCCATCAGAG
switch fluorescence ratio: 0.973 ± 0.0044

GCCATCGGGG
switch fluorescence ratio: 1.03 ± 0.012

GCCATTGTGG
switch fluorescence ratio: 0.99 ± 0.019

GCCATTTTGG
switch fluorescence ratio: 0.993 ± 0.013

GCCCAATATC
switch fluorescence ratio: 2.68 ± 0.053

GCCCAATTTT
switch fluorescence ratio: 0.998 ± 0.034

GCCCAGACGG
switch fluorescence ratio: 1.31 ± 0.41

GCCCCACCTT
switch fluorescence ratio: 1.08 ± 0.021

GCCCCCAGCG
switch fluorescence ratio: 4.61 ± 0.65

GCCCCGTTTG
switch fluorescence ratio: 1.0184 ± 0.00021

GCCCGACTCT
switch fluorescence ratio: 1.01 ± 0.041

GCCCGGGATT
switch fluorescence ratio: 1 ± 0.012

GCCCTAAGGC
switch fluorescence ratio: 0.979 ± 0.054

GCCCTCCAGA
switch fluorescence ratio: 1.14 ± 0.13

GCCCTGGGTC
switch fluorescence ratio: 1.02 ± 0.06

GCCCTTGTAC
switch fluorescence ratio: 1.2 ± 0.094

GCCGAATCTG
switch fluorescence ratio: 1 ± 0.02

GCCGATGCCT
switch fluorescence ratio: 1.02 ± 0.015

GCCGCCCTGG
switch fluorescence ratio: 1.056 ± 0.0076

GCCGCCGTAA
switch fluorescence ratio: 1.3 ± 0.079

GCCGCGAAGG
switch fluorescence ratio: 1.02 ± 0.018

GCCGCGGGTC
switch fluorescence ratio: 1.08 ± 0.048

GCCGGAAGAA
switch fluorescence ratio: 1.05 ± 0.037

GCCGGACATT
switch fluorescence ratio: 0.998 ± 0.02

GCCGGAGCGG
switch fluorescence ratio: 1.38 ± 0.062

GCCGGCAAGT
switch fluorescence ratio: 1.02 ± 0.016

GCCGGCCGGA
switch fluorescence ratio: 1.02 ± 0.02

GCCGGGAGTA
switch fluorescence ratio: 1.004 ± 0.0031

GCCGGGCTTG
switch fluorescence ratio: 1.02 ± 0.017

GCCGGGGACG
switch fluorescence ratio: 1.01 ± 0.011

GCCGGGGTGA
switch fluorescence ratio: 1.04 ± 0.043

GCCGTAGTGC
switch fluorescence ratio: 1.01 ± 0.03

GCCGTATGCT
switch fluorescence ratio: 0.9859 ± 0.0092

GCCGTCTCCC
switch fluorescence ratio: 1.03 ± 0.047

GCCGTGGCGG
switch fluorescence ratio: 0.9753 ± 0.0041

GCCGTTGCAT
switch fluorescence ratio: 1.022 ± 0.0019

GCCTAATAGT
switch fluorescence ratio: 0.98 ± 0.027

GCCTAATGTT
switch fluorescence ratio: 0.957 ± 0.022

GCCTACTGTT
switch fluorescence ratio: 0.9855 ± 0.0094

GCCTAGGGTT
switch fluorescence ratio: 1 ± 0.023

GCCTATAGTC
switch fluorescence ratio: 0.991 ± 0.03

GCCTGAGAGC
switch fluorescence ratio: 0.9754 ± 0.0021

GCCTGGGGGA
switch fluorescence ratio: 1.07 ± 0.12

GCCTGGTTGG
switch fluorescence ratio: 0.995 ± 0.015

GCCTGTAGGA
switch fluorescence ratio: 1.01 ± 0.015

GCCTGTATAG
switch fluorescence ratio: 0.9958 ± 0.0052

GCCTGTTTGT
switch fluorescence ratio: 0.983 ± 0.02

GCCTTAGGGT
switch fluorescence ratio: 1.015 ± 0.0029

GCCTTAGTGA
switch fluorescence ratio: 0.9959 ± 0.0046

GCCTTATATG
switch fluorescence ratio: 0.968 ± 0.03

GCCTTCCTTT
switch fluorescence ratio: 2.15 ± 0.72

GCCTTGACAG
switch fluorescence ratio: 0.989 ± 0.025

GCCTTGGACG
switch fluorescence ratio: 1.041 ± 0.0076

GCCTTGGGGG
switch fluorescence ratio: 1 ± 0.028

GCCTTTCAGA
switch fluorescence ratio: 1.005 ± 0.0053

GCCTTTTGCG
switch fluorescence ratio: 1.01 ± 0.018

GCGAAGGCGT
switch fluorescence ratio: 0.9709 ± 0.0033

GCGAAGTGCG
switch fluorescence ratio: 0.979 ± 0.015

GCGAATCGGT
switch fluorescence ratio: 1.01 ± 0.022

GCGAATGCTG
switch fluorescence ratio: 1.006 ± 0.0089

GCGAATTAGA
switch fluorescence ratio: 1 ± 0.034

GCGAATTAGG
switch fluorescence ratio: 0.9719 ± 0.0032

GCGAATTTTG
switch fluorescence ratio: 0.9994 ± 0.0081

GCGACCCTT
switch fluorescence ratio: 1.12 ± 0.037

GCGACGAAGG
switch fluorescence ratio: 1.02 ± 0.012

GCGACGGGGA
switch fluorescence ratio: 1.08 ± 0.021

GCGAGAATAT
switch fluorescence ratio: 1.03 ± 0.043

GCGAGAGGAT
switch fluorescence ratio: 0.985 ± 0.028

GCGAGATCTT
switch fluorescence ratio: 0.968 ± 0.015

GCGAGCGATG
switch fluorescence ratio: 0.9988 ± 0.0062

GCGAGCGCTG
switch fluorescence ratio: 1.02 ± 0.032

GCGAGGCCAA
switch fluorescence ratio: 1.28 ± 0.054

GCGAGGGGTG
switch fluorescence ratio: 1.02 ± 0.048

GCGAGGTCGA
switch fluorescence ratio: 0.991 ± 0.038

GCGATAGTGG
switch fluorescence ratio: 0.974 ± 0.011

GCGATATGTT
switch fluorescence ratio: 1.03 ± 0.043

GCGATCAGCT
switch fluorescence ratio: 1.034 ± 0.0022

GCGATGAGAG
switch fluorescence ratio: 1.03 ± 0.026

GCGATGGGGC
switch fluorescence ratio: 1.04 ± 0.039

GCGATGTCT
switch fluorescence ratio: 0.9976 ± 0.0065

GCGATTAAAT
switch fluorescence ratio: 1.018 ± 0.0019
